Measurements from patent US20150291692A1 (INNATE PHARMA, published 2015).

Key:
[1] = target: T1, KIR3DL1 expressed on cells (human, UniProt P43629 22-444); assay: flow cytometry on HEK KIR3DL1 cells (row HEK-KIR3DL1)
T1 construct: also called HEK-293T/KIR3DL1

[2] = target: T2, KIR3DL2 recombinant protein (R&D Systems) (human, UniProt P43630 28-340); assay: SPR (Biacore T100), antibody injected over immobilised recombinant KIR3DL2, bivalent affinity, pH 7.2
T2 construct: Bought protein; also called rec KIR3DL2; recombinant KIR3DL2-Fc fusion protein; not shown: Fc part of the bought fusion protein; not described
T2 sequence (P43630 28-340 A108T): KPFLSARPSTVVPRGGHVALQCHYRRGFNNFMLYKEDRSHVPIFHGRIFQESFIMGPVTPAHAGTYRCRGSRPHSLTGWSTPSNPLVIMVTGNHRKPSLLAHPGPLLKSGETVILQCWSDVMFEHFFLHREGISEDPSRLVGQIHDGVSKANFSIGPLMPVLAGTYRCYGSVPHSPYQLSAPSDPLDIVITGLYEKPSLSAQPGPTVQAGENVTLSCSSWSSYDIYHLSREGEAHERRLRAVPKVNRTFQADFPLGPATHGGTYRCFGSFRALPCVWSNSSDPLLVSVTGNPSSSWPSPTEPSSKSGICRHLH

[3] = target: T3, KIR3DL2 mutant M7 (L113V;T118R) (human, UniProt P43630 22-455); assay: flow cytometry on HEK-293T cells transfected with the mutant; + no significant loss of binding, ± decrease
T3 construct: Expressed on transfected HEK-293T cells; also called Number 7
T3 sequence (P43630 22-455 L134V/T139R): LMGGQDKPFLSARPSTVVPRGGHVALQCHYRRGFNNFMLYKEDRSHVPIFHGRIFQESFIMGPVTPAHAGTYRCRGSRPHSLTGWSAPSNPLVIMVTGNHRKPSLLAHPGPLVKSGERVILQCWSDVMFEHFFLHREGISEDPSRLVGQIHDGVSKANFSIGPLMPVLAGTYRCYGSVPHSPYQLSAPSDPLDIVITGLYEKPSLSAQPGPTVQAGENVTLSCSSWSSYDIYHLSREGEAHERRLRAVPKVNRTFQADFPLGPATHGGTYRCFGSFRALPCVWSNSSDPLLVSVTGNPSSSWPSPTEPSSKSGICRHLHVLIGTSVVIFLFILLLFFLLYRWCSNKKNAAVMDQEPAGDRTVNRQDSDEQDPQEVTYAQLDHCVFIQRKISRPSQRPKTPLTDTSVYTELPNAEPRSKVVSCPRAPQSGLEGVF

[4] = target: T4, KIR3DL2 mutant M9 (L164M;P166L;V167A) (human, UniProt P43630 22-455); assay: as above
T4 construct: Expressed on transfected HEK-293T cells; also called Number 9
T4 sequence (P43630 22-455 L185M/P187L/V188A): as the sequence (P43630 22-455 L134V/T139R) above, with V113L, R118T, L164M, P166L, V167A counted along it

[5] = target: T5, KIR3DL2 mutant M10 (R136K;E141K) (human, UniProt P43630 22-455); assay: as above
T5 construct: Expressed on transfected HEK-293T cells; also called Number 10
T5 sequence (P43630 22-455 R157K/E162K): as the sequence (P43630 22-455 L134V/T139R) above, with V113L, R118T, R136K, E141K counted along it

[6] = target: T6, KIR3DL2 mutant M11A3 (N99S;H100S;Q184A) (human, UniProt P43630 22-455); assay: as above
T6 construct: Expressed on transfected HEK-293T cells; also called Number 26 (11A3)
T6 sequence (P43630 22-455 N120S/H121S/Q205A): as the sequence (P43630 22-455 L134V/T139R) above, with N99S, H100S, V113L, R118T, Q184A counted along it

[7] = target: T7, KIR3DL2 mutant M11A5 (V147A;Q149S) (human, UniProt P43630 22-455); assay: as above
T7 construct: Expressed on transfected HEK-293T cells; also called Number 28 (11A5)
T7 sequence (P43630 22-455 V168A/Q170S): as the sequence (P43630 22-455 L134V/T139R) above, with V113L, R118T, V147A, Q149S counted along it

[8] = target: T8, KIR3DL2 mutant M11A6 (I150A;M128A) (human, UniProt P43630 22-455); assay: as above
T8 construct: Expressed on transfected HEK-293T cells; also called Number 29 (11A6)
T8 sequence (P43630 22-455 M149A/I171A): as the sequence (P43630 22-455 L134V/T139R) above, with V113L, R118T, M128A, I150A counted along it

[9] = target: T9, KIR3DL2 mutant M11 (P179T;S181T) (human, UniProt P43630 22-455); assay: flow cytometry on HEK-293T cells transfected with the mutant; - means substantially complete loss of binding
T9 construct: Expressed on transfected HEK-293T cells; also called Number 11; mutant 11
T9 sequence (P43630 22-455 P200T/S202T): as the sequence (P43630 22-455 L134V/T139R) above, with V113L, R118T, P179T, S181T counted along it

[10] = target: T10, KIR3DL2 mutant M11A4 (E130S;H131S;R145S) (human, UniProt P43630 22-455); assay: as above
T10 construct: Expressed on transfected HEK-293T cells; also called Number 27 (11A4)
T10 sequence (P43630 22-455 E151S/H152S/R166S): as the sequence (P43630 22-455 L134V/T139R) above, with V113L, R118T, E130S, H131S, R145S counted along it

[11] = target: T11, KIR3DL2 mutant M8 + 11 (V127I;P179T;S181T) (human, UniProt P43630 22-455); assay: as above
T11 construct: Expressed on transfected HEK-293T cells; also called Number 23 (8 + 11)
T11 sequence (P43630 22-455 V148I/P200T/S202T): as the sequence (P43630 22-455 L134V/T139R) above, with V113L, R118T, V127I, P179T, S181T counted along it

[12] = target: T12, KIR3DL2 at the surface of HUT78 Sezary Syndrome cell line (human, UniProt P43630 22-455); assay: flow cytometry competition on HUT78 cells; naked antibody titrated against 15C11-PE (5 µg/ml)
T12 construct: whole, on cells; Two alleles are expressed
T12 sequence (P43630 22-455): as the sequence (P43630 22-455 L134V/T139R) above, with V113L, R118T counted along it

[13] = target: T13, NK cells, including normal KIR3DL2+ NK cells (Homo sapiens, UniProt P43630); assay: flow cytometry of whole blood of a Sezary Syndrome patient, antibody + GaM-PE against CD4; lower gate (CD4-negative NK cells)
T13 construct: full-length receptor on the cell surface; also called gate NK GaM PE+; KIR3DL2 on CD4-negative NK cells in the blood of the Sezary Syndrome patient
T13 sequence (P43630 22-455 limits assumed): as the sequence (P43630 22-455 L134V/T139R) above, with V113L, R118T counted along it

[14] = target: T14, KIR3DL2 on fresh Sezary Syndrome cells of patients (human, UniProt P43630 22-455); assay: flow cytometry of whole blood of a Sezary Syndrome patient, antibody + GaM-PE against CD4; upper gate (CD4+ KIR3DL2+ leukemic Sezary cells)
T14 construct: whole, on cells; also called SS cells
T14 sequence (P43630 22-455): as the sequence (P43630 22-455 L134V/T139R) above, with V113L, R118T counted along it

[15] = target: T2, KIR3DL2 recombinant protein (R&D …); assay: SCK kinetic method
[16] = target: T2, KIR3DL2 recombinant protein (R&D …); assay: regular kinetic method

T1 sequence (P43629 22-444 limits assumed): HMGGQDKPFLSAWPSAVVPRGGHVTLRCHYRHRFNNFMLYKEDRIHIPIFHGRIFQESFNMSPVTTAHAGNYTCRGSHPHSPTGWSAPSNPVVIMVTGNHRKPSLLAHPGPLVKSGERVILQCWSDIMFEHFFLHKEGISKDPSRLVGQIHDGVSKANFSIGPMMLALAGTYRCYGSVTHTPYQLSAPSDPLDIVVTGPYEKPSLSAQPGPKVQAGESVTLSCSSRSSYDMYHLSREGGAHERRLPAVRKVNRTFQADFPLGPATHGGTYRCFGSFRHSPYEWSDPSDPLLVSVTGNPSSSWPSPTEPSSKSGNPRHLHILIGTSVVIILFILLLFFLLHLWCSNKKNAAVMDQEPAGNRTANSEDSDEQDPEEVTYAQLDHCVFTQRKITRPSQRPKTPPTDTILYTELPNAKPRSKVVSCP

Kd [15] [nM]	koff [15] [s⁻¹]	Kd [16] [nM]	koff [16] [s⁻¹]	Binder	also measured
–	–	–	–	antibody 19H12 (antibody, mouse IgG2b, V domains shown, also called mo19H12) VH: QIQLVQSGPELKKPGETVKISCKASGYTFTNFGMNWVKQAPGKGLKWMGWINTYTGEPTYADDFKGRFAFSLETSASTAYLQINNLKNEDMATYFCARNGNFGYYFDYWGQGTTLTVSS VL: DVLMTQTPLSLPVSLGDQASFSCRSSQNIVHSNGNTYLEWYLQKPGQSPSLLIYKVSNRFSGVPDRFSGSGSGTDFTLKITRVEAEDLGVYYCFQGSHVPFTFGSGTKLEIK	binding result [1]: no binding; Kd [2]: 0.49 nM; binding result [3]: binds; binding result [4]: binds; binding result [5]: binds; binding result [6]: binds; binding result [7]: binds; binding result [8]: binds; binding result [9]: no binding; binding result [10]: no binding; binding result [11]: no binding; IC50 (read off the curve) [12]: ~0.4 µg/mL; % of cells in gate NK GaM PE+ [13]: 14.9%; % of cells in gate CD4 GaM PE+ [14]: 7.5%
–	–	–	–	antibody 22B2 (antibody, mouse IgG1, V domains shown) VH: QIQLVQSGPELKKPGETVKISCKASGYTFTNYGMNWVKQAPGKGLKWMGWINTYTGEPTYADDFKGRFAFSLETSATTAYLQINNLKNEDMATYFCSRSFGSTYGDYWGQGTTLTVSS VL: DVLMTQTPLSLPVSLGDQASISCRSSQTIVHSNGNTYLEWYLQKPGQSPKLLIYKVSNRFSGVPDRFSGSGSGTDFTLKISRVEAEDLGVYYCFQGSHVPWTFGGGTKLEIK	binding result [1]: no binding; Kd [2]: 2.2 nM; % of cells in gate NK GaM PE+ [13]: 11.6%; % of cells in gate CD4 GaM PE+ [14]: 7.7%
0.5	0.00014	1.24	0.000329	Hum23-K32-15C11 (antibody, V domains shown, also called H2/L3) VH: EVQLVESGGGLVQPGGSLRLSCAASGFTFSDAWMDWVRQAPGKGLEWVGEIRSKANNHATYYAASVKGRFTISRDDSKNSLYLQMNSLKTEDTAVYYCTGGYYPVYWGQGTLVTVSS VL: DIQMTQSPSSLSASVGDRVTITCKASQDINKNIAWYQHKPGKAPKLLIHYTSTLQPGVPSRFSGSGSGRDYTFTISSLQPEDIATYYCLQYDNLLTFGGGTKVEIK	–
0.65	0.000156	1.74	0.000385	Hum22-K32-15C11 (antibody, V domains shown, also called H2/L2) VH: EVQLVESGGGLVQPGGSLRLSCAASGFTFSDAWMDWVRQAPGKGLEWVGEIRSKANNHATYYAASVKGRFTISRDDSKNSLYLQMNSLKTEDTAVYYCTGGYYPVYWGQGTLVTVSS VL: DIQMTQSPSSLSASVGDRVTITCKASQDINKNIAWYQHKPGKAPKLLIHYTSTLQPGVPSRFSGSGSGTDFTFTISSLQPEDIATYYCLQYDNLLTFGGGTKVEIK	–
0.51	0.000104	1.29	0.00025	Hum32-K32-15C11 (antibody, V domains shown, also called H3/L2) VH: EVQLVESGGGLVQPGGSLRLSCAASGFTFSDAWMDWVRQAPGKGLEWVAEIRSKANNHATYYAASVKGRFTISRDDSKNSVYLQMNSLKTEDTAVYYCTGGYYPVYWGQGTLVTVSS VL: DIQMTQSPSSLSASVGDRVTITCKASQDINKNIAWYQHKPGKAPKLLIHYTSTLQPGVPSRFSGSGSGTDFTFTISSLQPEDIATYYCLQYDNLLTFGGGTKVEIK	–
1.13	0.000286	4.59	0.00105	Hum13-K32-15C11 (antibody, V domains shown, also called H1/L3) VH: EVQLVESGGGLVQPGGSLRLSCAASGFTFSDAWMDWVRQAPGKGLEWVGRIRSKANNHATAYAASVKGRFTISRDDSKNSLYLQMNSLKTEDTAVYYCTGGYYPVYWGQGTLVTVSS VL: DIQMTQSPSSLSASVGDRVTITCKASQDINKNIAWYQHKPGKAPKLLIHYTSTLQPGVPSRFSGSGSGRDYTFTISSLQPEDIATYYCLQYDNLLTFGGGTKVEIK	–
1.63	0.000109	5.61	0.00132	Hum12-K32-15C11 (antibody, V domains shown, also called H1/L2; H1-L2) VH: EVQLVESGGGLVQPGGSLRLSCAASGFTFSDAWMDWVRQAPGKGLEWVGRIRSKANNHATAYAASVKGRFTISRDDSKNSLYLQMNSLKTEDTAVYYCTGGYYPVYWGQGTLVTVSS VL: DIQMTQSPSSLSASVGDRVTITCKASQDINKNIAWYQHKPGKAPKLLIHYTSTLQPGVPSRFSGSGSGTDFTFTISSLQPEDIATYYCLQYDNLLTFGGGTKVEIK	–
0.33	7.8e-05	0.78	0.00018	Hum33-K32-15C11 (antibody, V domains shown, also called H3/L3; H3-L3) VH: EVQLVESGGGLVQPGGSLRLSCAASGFTFSDAWMDWVRQAPGKGLEWVAEIRSKANNHATYYAASVKGRFTISRDDSKNSVYLQMNSLKTEDTAVYYCTGGYYPVYWGQGTLVTVSS VL: DIQMTQSPSSLSASVGDRVTITCKASQDINKNIAWYQHKPGKAPKLLIHYTSTLQPGVPSRFSGSGSGRDYTFTISSLQPEDIATYYCLQYDNLLTFGGGTKVEIK	–
0.22	0.000108	0.68	0.00029	chimeric 15C11 of human IgG1 Fc isotype (antibody, V domains shown, Human-mouse chimeric antibody with the variable regions of murine 15C11; also called chim15C11; Chim15C11) VH: EVKLEESGGGLVQPGGSMKLSCAASGFTFSDAWMDWVRQSPEKGLEWVAEIRSKANNHATYYAESVKGRFTISRDDSKSSVYLRMNSLRAEDTGIYYCTGGYYPVYWGQGTLVTVSA VL: DIQMTQSPSSLSASLGGKVTITCKASQDINKNIAWYQHKPGKGPRLLIHYTSTLQPGFPSRFSGSGSGRDYSFSISNLEPEDLATYYCLQYDNLLTFGGGTKLEIK	–
